Usually Kd stands for the concentration at which binding is half-saturated. Broadly, the stoichiometry N is a count of units in the complex or per binding partner.

Read-outs that look alike come from different tables or passages of the source.

Data set [1] concerns the target VEGF-A165 (Homo sapiens) (UniProt P15692). The conditions noted are these: cited from earlier work.
Data set [2] shares this target. The conditions noted are these: cited from earlier work. The source holds these as a separate data set.
The nature of data set [3]: SEC; as a9; sample: ziv-AFL 25 mg/mL, 60 °C for 3 h. For orientation: In gel filtration, larger molecules generally elute earlier.
A short description of data set [4]: SEC; as a9; sample: ziv-AFL 25 mg/mL, 60 °C for 1 h.
The nature of data set [5]: SEC; as a9; sample: ziv-AFL medicine adjusted to pH 5.2.
Data set [6] is described as follows: SEC; as a9; sample: ziv-AFL diluted in NaCl 1.5 M.
The nature of data set [7]: SEC; as a9; sample: ziv-AFL diluted in GndHCl 8 M.
The target in data set [8] is ziv-aflibercept (Zaltrap, 25 mg/mL) (human). Kind of data set: SEC; as a9; sample: ziv-AFL 25 mg/mL, 1 freeze-thaw cycle.
Data set [9] deals with VEGF (UniProt P15692). Nature of the data set: ELISA; as a1; sample: ziv-AFL medicine adjusted to pH 7.2 with 1 M NH3. On the technique in general: In an ELISA, binding on a coated surface is turned into a signal by an enzyme label.
Data set [10] has as its target ziv-aflibercept (Zaltrap, 25 mg/mL) (human). Kind of data set: SEC; as a9; sample: ziv-AFL 25 mg/mL, 60 °C for 3 h.
The target is the same in data set [11]. Nature of the data set: SEC; as a9; sample: ziv-AFL 25 mg/mL, light irradiation (250 W/m^2) for 12 h.
The target is the same in data set [12]. Kind of data set: SEC; as a9; sample: ziv-AFL 25 mg/mL, 2 freeze-thaw cycles.
Data set [13] has the same target. Kind of data set: SEC; as a9; sample: ziv-AFL 25 mg/mL, 60 °C for 2 h.
Data set [14] has the same target. Nature of the data set: SEC; as a9; sample: ziv-AFL 25 mg/mL, light irradiation (250 W/m^2) for 12 h. The source holds these as a separate data set.
For data set [15], the target named is VEGF (UniProt P15692). Nature of the data set: ELISA; as a1; sample: ziv-AFL medicine adjusted to pH 5.2 with 0.1 M HCl.
In data set [16] the target is ziv-aflibercept (Zaltrap, 25 mg/mL) (human). Nature of the data set: SEC; as a9; sample: ziv-AFL 25 mg/mL, 60 °C for 1 h.
For data set [17] the target is unchanged. Nature of the data set: SEC; as a9; sample: ziv-AFL medicine adjusted to pH 5.2.
Data set [18] shares this target. Nature of the data set: SEC; as a9; sample: ziv-AFL diluted in NaCl 1.5 M.
The target is the same in data set [19]. Kind of data set: SEC; as a9; sample: ziv-AFL diluted in GndHCl 8 M.
The target is the same in data set [20]. Nature of the data set: SEC; as a9; sample: ziv-AFL medicine adjusted to pH 7.2.
Data set [21] has the same target. Kind of data set: SEC; SE-HPLC/DAD, SEC-5 column, 25 °C, 150 mM phosphate pH 7.0, 0.35 mL/min, 1 ul injected; masses estimated from the column calibration; sample: fresh (control) ziv-AFL 25 mg/mL.

Chain of ziv-aflibercept (Zaltrap, 25 mg/mL) (chain): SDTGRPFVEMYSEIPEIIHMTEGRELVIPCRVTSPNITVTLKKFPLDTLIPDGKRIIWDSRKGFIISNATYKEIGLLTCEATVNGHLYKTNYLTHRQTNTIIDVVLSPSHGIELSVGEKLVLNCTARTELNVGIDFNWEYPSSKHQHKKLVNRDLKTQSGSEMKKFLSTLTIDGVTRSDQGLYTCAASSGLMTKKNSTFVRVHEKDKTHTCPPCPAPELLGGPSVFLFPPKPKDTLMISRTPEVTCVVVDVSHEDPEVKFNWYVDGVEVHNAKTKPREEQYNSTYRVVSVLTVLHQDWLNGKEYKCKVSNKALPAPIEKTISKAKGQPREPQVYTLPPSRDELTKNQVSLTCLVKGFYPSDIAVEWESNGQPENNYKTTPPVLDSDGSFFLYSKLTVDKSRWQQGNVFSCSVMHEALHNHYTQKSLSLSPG
Chain of ziv-aflibercept (Zaltrap, 25 mg/mL) (Fc fusion) (chain): as above
Chain of VEGF-A165 (Homo sapiens) (P15692 whole entry): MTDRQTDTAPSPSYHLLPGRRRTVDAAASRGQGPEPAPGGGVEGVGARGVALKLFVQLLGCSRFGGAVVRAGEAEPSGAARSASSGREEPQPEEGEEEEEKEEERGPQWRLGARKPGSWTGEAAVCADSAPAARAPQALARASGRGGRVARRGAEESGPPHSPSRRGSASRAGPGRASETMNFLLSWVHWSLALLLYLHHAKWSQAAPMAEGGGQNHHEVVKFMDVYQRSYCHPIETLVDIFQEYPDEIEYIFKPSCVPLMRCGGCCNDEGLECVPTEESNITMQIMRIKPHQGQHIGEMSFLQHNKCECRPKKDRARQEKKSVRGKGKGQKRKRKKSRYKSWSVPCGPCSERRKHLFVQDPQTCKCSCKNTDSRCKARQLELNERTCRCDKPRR
Chain of VEGFR2 (P35968 20-1356): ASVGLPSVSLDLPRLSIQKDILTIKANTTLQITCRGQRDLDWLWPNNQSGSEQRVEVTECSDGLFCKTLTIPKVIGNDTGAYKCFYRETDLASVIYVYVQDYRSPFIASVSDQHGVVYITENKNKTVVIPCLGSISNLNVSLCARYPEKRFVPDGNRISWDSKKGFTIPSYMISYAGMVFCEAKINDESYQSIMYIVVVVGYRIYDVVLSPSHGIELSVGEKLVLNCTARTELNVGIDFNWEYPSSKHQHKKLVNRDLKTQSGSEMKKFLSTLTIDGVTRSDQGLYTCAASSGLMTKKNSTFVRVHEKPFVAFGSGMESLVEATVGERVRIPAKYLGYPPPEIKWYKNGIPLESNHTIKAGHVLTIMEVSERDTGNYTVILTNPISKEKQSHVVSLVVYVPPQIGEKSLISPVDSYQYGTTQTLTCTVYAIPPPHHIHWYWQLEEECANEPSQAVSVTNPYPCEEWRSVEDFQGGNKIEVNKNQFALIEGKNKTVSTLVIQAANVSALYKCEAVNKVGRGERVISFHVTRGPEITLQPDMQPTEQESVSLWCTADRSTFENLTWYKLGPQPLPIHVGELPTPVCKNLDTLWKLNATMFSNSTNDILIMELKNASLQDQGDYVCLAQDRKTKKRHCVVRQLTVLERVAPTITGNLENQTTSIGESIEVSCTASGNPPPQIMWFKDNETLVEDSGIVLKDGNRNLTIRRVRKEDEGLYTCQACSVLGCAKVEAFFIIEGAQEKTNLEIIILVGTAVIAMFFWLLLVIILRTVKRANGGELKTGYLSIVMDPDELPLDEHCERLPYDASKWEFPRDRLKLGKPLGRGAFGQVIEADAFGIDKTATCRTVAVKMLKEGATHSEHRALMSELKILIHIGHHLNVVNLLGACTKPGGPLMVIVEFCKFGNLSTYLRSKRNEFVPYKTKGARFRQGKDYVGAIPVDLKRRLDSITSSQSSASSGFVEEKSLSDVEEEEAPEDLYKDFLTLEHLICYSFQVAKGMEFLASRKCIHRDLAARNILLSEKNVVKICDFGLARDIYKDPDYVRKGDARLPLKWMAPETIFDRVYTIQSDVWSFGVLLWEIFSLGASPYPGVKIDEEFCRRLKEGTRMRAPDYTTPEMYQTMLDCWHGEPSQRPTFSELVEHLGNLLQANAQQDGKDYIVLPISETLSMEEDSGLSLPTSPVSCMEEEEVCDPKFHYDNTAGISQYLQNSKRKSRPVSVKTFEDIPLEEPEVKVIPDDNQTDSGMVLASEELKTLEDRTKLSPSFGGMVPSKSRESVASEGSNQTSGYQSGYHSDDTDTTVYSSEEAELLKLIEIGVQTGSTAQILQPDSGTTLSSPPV
Chain of VEGFR1 (P17948 27-1338): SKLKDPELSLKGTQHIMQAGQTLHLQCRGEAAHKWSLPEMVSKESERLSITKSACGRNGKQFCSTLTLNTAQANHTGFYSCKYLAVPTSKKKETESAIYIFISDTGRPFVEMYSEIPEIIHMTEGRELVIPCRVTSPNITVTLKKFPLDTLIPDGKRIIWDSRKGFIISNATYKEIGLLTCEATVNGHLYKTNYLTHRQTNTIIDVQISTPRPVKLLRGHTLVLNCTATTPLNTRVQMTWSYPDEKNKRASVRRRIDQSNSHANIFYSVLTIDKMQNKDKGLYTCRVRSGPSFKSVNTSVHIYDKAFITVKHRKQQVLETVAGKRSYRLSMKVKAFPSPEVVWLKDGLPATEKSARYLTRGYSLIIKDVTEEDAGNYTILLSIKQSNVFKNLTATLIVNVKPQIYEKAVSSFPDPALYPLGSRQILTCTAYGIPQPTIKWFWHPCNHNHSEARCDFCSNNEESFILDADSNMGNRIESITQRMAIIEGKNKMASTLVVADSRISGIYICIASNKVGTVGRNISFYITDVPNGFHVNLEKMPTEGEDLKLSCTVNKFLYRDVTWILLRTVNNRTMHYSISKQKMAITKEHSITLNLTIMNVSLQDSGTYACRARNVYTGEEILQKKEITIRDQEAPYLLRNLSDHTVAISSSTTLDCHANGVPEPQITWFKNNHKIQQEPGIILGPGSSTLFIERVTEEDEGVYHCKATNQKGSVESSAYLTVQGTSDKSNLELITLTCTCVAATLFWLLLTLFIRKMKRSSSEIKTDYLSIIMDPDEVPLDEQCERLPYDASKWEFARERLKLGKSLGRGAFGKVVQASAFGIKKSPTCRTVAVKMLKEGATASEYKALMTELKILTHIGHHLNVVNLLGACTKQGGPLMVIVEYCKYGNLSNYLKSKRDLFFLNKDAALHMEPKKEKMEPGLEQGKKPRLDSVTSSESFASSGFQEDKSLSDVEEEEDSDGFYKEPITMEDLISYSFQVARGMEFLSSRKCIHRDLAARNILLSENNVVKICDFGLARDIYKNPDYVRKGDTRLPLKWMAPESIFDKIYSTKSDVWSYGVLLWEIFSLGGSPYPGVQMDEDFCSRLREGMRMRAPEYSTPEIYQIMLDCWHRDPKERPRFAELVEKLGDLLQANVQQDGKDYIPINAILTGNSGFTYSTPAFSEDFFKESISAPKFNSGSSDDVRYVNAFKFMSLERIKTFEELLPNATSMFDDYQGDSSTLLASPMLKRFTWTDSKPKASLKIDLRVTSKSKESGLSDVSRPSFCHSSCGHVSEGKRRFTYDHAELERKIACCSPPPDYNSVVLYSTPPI

Regarding VEGFR1 (from UniProt P17948), in [1], the Kd is 0.00933 nM.
Turning to VEGFR2 (from UniProt P35968), the Kd in data set [2] is 0.0888 nM.
For ziv-aflibercept (Zaltrap, 25 mg/mL), the abundance of non-natural HMW aggregates (% of total peak area) in [3] was 55.2%; in [4] it was 22.1%; in [5] it was 0.8%; in data set [6] it was 1.1%; in data set [7] it was 7.2% and a higher order of aggregation at 5.46 min (5.56%).
As to “ziv-aflibercept (Zaltrap, 25 mg/mL) (Fc fusion)”, the abundance of dimer (% of total peak area) in [8] was 1.9%; in data set [10], 7.7%; in [11], 12.2%; in data set [12], 2.1%; in data set [13], 7.8%; in [14], 12.4%. The abundance of dimer (% of total peak area) was 8% in data set [16]; 2% in data set [17]; 1.4% in data set [18]; 19% in [19]; 1.8% in data set [20]; 1.9% in [21]. Moreover, the remaining biological activity (ELISA against the control, test samples at 10 and 100 µg/ml) amounted to 36% in [9] and 25% in data set [15]. Moreover, the stoichiometry N in [13] was 10; in data set [21] it was 2.

The record behind these values is paper PMC7021693.
